The results in this text go back to the supplement of paper PMC9112550, “Optimization of the antimicrobial peptide Bac7 by deep mutational scanning” (BMC Biology, 2022).
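Note: peptides expressed intracellularly from a pBAD plasmid library in pooled LB shake-flask culture, induced with 0.3% L-arabinose, DNA abundance read by NGS, three biological replicates, DESeq2 with apeglm shrinkage.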

The test system of the data set is Escherichia coli TOP10. Description: shrunken log2 fold change of peptide-encoding DNA abundance (4.5 h post-induction vs induction); higher = less antimicrobial activity (less host growth inhibition). As to conditions: time post-induction: 4.5 h; library: site-saturation at positions 5, 18, 19, 20.
As to RRIRMRPPRLPRPRPRPCDVPRP, the “shrunken log2 fold change” value was determined as 0.0259.
For RRIRRRPPRLPRPRPRPGNKPRP, the “shrunken log2 fold change” value was -0.176.
As for RRIRMRPPRLPRPRPRPTKRPRP, the “shrunken log2 fold change” value came out at 0.901.
The value for RRIRSRPPRLPRPRPRPKNEPRP was -0.011.
As to RRIRWRPPRLPRPRPRPFSKPRP, the “shrunken log2 fold change” value is -0.0531.
Turning to RRIRGRPPRLPRPRPRPWIPPRP, the “shrunken log2 fold change” value was -0.429.
In the case of RRIRHRPPRLPRPRPRPYNQPRP, the “shrunken log2 fold change” value is -0.342.
Consider RRIRFRPPRLPRPRPRPHMPPRP, for which the “shrunken log2 fold change” value is -0.0659.
Then RRIRARPPRLPRPRPRPVGDPRP, with 0.515.
For the sequence RRIRDRPPRLPRPRPRPVTVPRP, the “shrunken log2 fold change” value is -0.135.
RRIRWRPPRLPRPRPRPFEHPRP: the “shrunken log2 fold change” value was -0.113.
Turning to RRIRGRPPRLPRPRPRPHHKPRP, the “shrunken log2 fold change” value is -0.122.
On to RRIRDRPPRLPRPRPRPLVQPRP, for which the “shrunken log2 fold change” value is 0.709.
On to RRIRIRPPRLPRPRPRPGAQPRP, for which the “shrunken log2 fold change” value is -0.0304.
The value for RRIRRRPPRLPRPRPRPWPRPRP was 0.349; that for RRIRQRPPRLPRPRPRPRACPRP was 0.344.
As for RRIRERPPRLPRPRPRPPKPPRP, the “shrunken log2 fold change” value stood at 0.122.
Then RRIRLRPPRLPRPRPRPKAAPRP, with 0.679; and RRIRQRPPRLPRPRPRPTMTPRP, with -0.0845.
As to RRIRCRPPRLPRPRPRPFLQPRP, the “shrunken log2 fold change” value was 1.41.
As for RRIRNRPPRLPRPRPRPRRNPRP, the “shrunken log2 fold change” value is -0.03.
As to RRIRCRPPRLPRPRPRPWRQPRP, the “shrunken log2 fold change” value is -0.167.
As for RRIRLRPPRLPRPRPRPRSTPRP, the “shrunken log2 fold change” value is -0.00899.
On to RRIRWRPPRLPRPRPRPRLKPRP, for which the “shrunken log2 fold change” value was determined as 0.689.
In the case of RRIRNRPPRLPRPRPRPTGGPRP, the “shrunken log2 fold change” value is 0.154.
With RRIRSRPPRLPRPRPRPRCDPRP, the “shrunken log2 fold change” value worked out at 0.144.
As to RRIRERPPRLPRPRPRPHHHPRP, the “shrunken log2 fold change” value was -0.58.
For the sequence RRIRVRPPRLPRPRPRPCNPPRP, the “shrunken log2 fold change” value was -0.182.
Turning to RRIRNRPPRLPRPRPRPMNIPRP, the “shrunken log2 fold change” value is -0.24.
As for RRIRLRPPRLPRPRPRPEHQPRP, the “shrunken log2 fold change” value was -0.0896.
On to RRIRIRPPRLPRPRPRPIAIPRP, for which the “shrunken log2 fold change” value is -0.257.
Turning to RRIRGRPPRLPRPRPRPVLKPRP, the “shrunken log2 fold change” value came to 0.402.
For RRIRNRPPRLPRPRPRPCMPPRP, the “shrunken log2 fold change” value is -0.549.
As for RRIRMRPPRLPRPRPRPNLQPRP, the “shrunken log2 fold change” value is -0.0416.
The value for RRIRMRPPRLPRPRPRPCGVPRP was 0.714; that for RRIRKRPPRLPRPRPRPFWKPRP was 0.0342.
The value for RRIRGRPPRLPRPRPRPYKRPRP was -0.217; that for RRIRSRPPRLPRPRPRPRRGPRP was 0.538; that for RRIRARPPRLPRPRPRPPWGPRP was 0.48.
Then RRIRGRPPRLPRPRPRPMADPRP, with 0.173; and RRIRCRPPRLPRPRPRPEVTPRP, with -0.0149; and RRIRVRPPRLPRPRPRPPTDPRP, with 0.116.
As for RRIRRRPPRLPRPRPRPCMWPRP, the “shrunken log2 fold change” value was determined as 0.313.
With RRIRPRPPRLPRPRPRPMFHPRP, the “shrunken log2 fold change” value was -0.289.
Take RRIRCRPPRLPRPRPRPGENPRP: the “shrunken log2 fold change” value was determined as 0.0862.
On to RRIRGRPPRLPRPRPRPTIWPRP, for which the “shrunken log2 fold change” value stood at 0.872.
As for RRIRFRPPRLPRPRPRPLEWPRP, the “shrunken log2 fold change” value is 0.0696.
The value for RRIRHRPPRLPRPRPRPCFMPRP was -0.404; that for RRIRERPPRLPRPRPRPLNEPRP was -0.13; that for RRIRPRPPRLPRPRPRPCLTPRP was -0.0809.
As for RRIRWRPPRLPRPRPRPIVEPRP, the “shrunken log2 fold change” value was found to be 0.127.
For RRIRWRPPRLPRPRPRPEKAPRP, the “shrunken log2 fold change” value was -0.0225.
For the sequence RRIRSRPPRLPRPRPRPAEIPRP, the “shrunken log2 fold change” value was -0.136.
Regarding RRIRLRPPRLPRPRPRPFMKPRP, the “shrunken log2 fold change” value was -0.222.
On to RRIRLRPPRLPRPRPRPPQCPRP, for which the “shrunken log2 fold change” value was -0.313.
Then RRIRHRPPRLPRPRPRPTWVPRP, with 0.078; and RRIRRRPPRLPRPRPRPCPAPRP, with 0.392.
Then RRIRCRPPRLPRPRPRPNTNPRP, with -0.66; and RRIRARPPRLPRPRPRPHTGPRP, with -0.365.
Consider RRIRWRPPRLPRPRPRPGKLPRP, for which the “shrunken log2 fold change” value was -0.368.
Take RRIRCRPPRLPRPRPRPTGNPRP: the “shrunken log2 fold change” value amounted to 0.048.
RRIRRRPPRLPRPRPRPRWIPRP: the “shrunken log2 fold change” value is 0.356.
Turning to RRIRVRPPRLPRPRPRPWWMPRP, the “shrunken log2 fold change” value is -0.26.
The value for RRIRTRPPRLPRPRPRPIEVPRP was 0.131; that for RRIRDRPPRLPRPRPRPDWDPRP was 4.78.
Turning to RRIRLRPPRLPRPRPRPGDWPRP, the “shrunken log2 fold change” value is 0.618.
Consider RRIRKRPPRLPRPRPRPNAAPRP, for which the “shrunken log2 fold change” value is 0.986.
RRIRRRPPRLPRPRPRPCRGPRP: the “shrunken log2 fold change” value was 0.17.
Regarding RRIRIRPPRLPRPRPRPMNNPRP, the “shrunken log2 fold change” value was -0.465.
In the case of RRIRLRPPRLPRPRPRPQFDPRP, the “shrunken log2 fold change” value was -0.293.
The value for RRIRSRPPRLPRPRPRPYCCPRP was -0.375.
The value for RRIRKRPPRLPRPRPRPKLHPRP was 0.129; that for RRIRSRPPRLPRPRPRPSMHPRP was 0.402.
In the case of RRIRKRPPRLPRPRPRPDRQPRP, the “shrunken log2 fold change” value is 0.204.
As for RRIRRRPPRLPRPRPRPSLPPRP, the “shrunken log2 fold change” value was 0.44.
The value for RRIRYRPPRLPRPRPRPELEPRP was 0.0858.
Regarding RRIRHRPPRLPRPRPRPRCGPRP, the “shrunken log2 fold change” value was found to be 0.202.
On to RRIRYRPPRLPRPRPRPYAAPRP, for which the “shrunken log2 fold change” value is -0.546.
RRIRERPPRLPRPRPRPMCEPRP: the “shrunken log2 fold change” value stood at 0.0303.
Take RRIRKRPPRLPRPRPRPITFPRP: the “shrunken log2 fold change” value is -0.0147.
With RRIRMRPPRLPRPRPRPNQLPRP, the “shrunken log2 fold change” value came out at 0.0894.
Turning to RRIRCRPPRLPRPRPRPTRKPRP, the “shrunken log2 fold change” value is -0.0442.
Consider RRIRTRPPRLPRPRPRPVCTPRP, for which the “shrunken log2 fold change” value is 0.162.
For the sequence RRIRTRPPRLPRPRPRPHGGPRP, the “shrunken log2 fold change” value was determined as 0.384.
On to RRIRKRPPRLPRPRPRPRFEPRP, for which the “shrunken log2 fold change” value turned out to be 0.43.
For RRIRFRPPRLPRPRPRPYAWPRP, the “shrunken log2 fold change” value was -0.134.
RRIRWRPPRLPRPRPRPFESPRP: the “shrunken log2 fold change” value was -0.0622.
Then RRIRHRPPRLPRPRPRPFWAPRP, with 0.245; and RRIRWRPPRLPRPRPRPCCPPRP, with -0.206.
On to RRIRQRPPRLPRPRPRPMRRPRP, for which the “shrunken log2 fold change” value was found to be 0.225.
For RRIRVRPPRLPRPRPRPDWMPRP, the “shrunken log2 fold change” value was -0.0942.
For RRIRDRPPRLPRPRPRPMIMPRP, the “shrunken log2 fold change” value stood at 0.387.
With RRIRKRPPRLPRPRPRPGTMPRP, the “shrunken log2 fold change” value was 0.0526.
As for RRIRWRPPRLPRPRPRPMQWPRP, the “shrunken log2 fold change” value is 0.379.
On to RRIRQRPPRLPRPRPRPNYDPRP, for which the “shrunken log2 fold change” value was -0.257.
Then RRIRVRPPRLPRPRPRPHILPRP, with -0.234.
On to RRIRNRPPRLPRPRPRPNSMPRP, for which the “shrunken log2 fold change” value is -0.815.
In the case of RRIRVRPPRLPRPRPRPPNRPRP, the “shrunken log2 fold change” value was 0.144.
Turning to RRIRYRPPRLPRPRPRPRYDPRP, the “shrunken log2 fold change” value is -0.21.
Regarding RRIRMRPPRLPRPRPRPITIPRP, the “shrunken log2 fold change” value is -0.315.
Then RRIRTRPPRLPRPRPRPTMWPRP, with -0.0407; and RRIRSRPPRLPRPRPRPPEFPRP, with -0.119; and RRIRGRPPRLPRPRPRPAPHPRP, with 0.95.
With RRIRRRPPRLPRPRPRPTVPPRP, the “shrunken log2 fold change” value is 0.0694.
Regarding RRIRDRPPRLPRPRPRPEGSPRP, the “shrunken log2 fold change” value was 1.06.
Turning to RRIRGRPPRLPRPRPRPLWYPRP, the “shrunken log2 fold change” value came to 0.298.
With RRIRMRPPRLPRPRPRPVSCPRP, the “shrunken log2 fold change” value is 0.141.
Regarding RRIRTRPPRLPRPRPRPKNFPRP, the “shrunken log2 fold change” value is -0.0884.
Turning to RRIRKRPPRLPRPRPRPNNPPRP, the “shrunken log2 fold change” value is -0.00604.
As to RRIRPRPPRLPRPRPRPSPCPRP, the “shrunken log2 fold change” value was -0.0121.
Take RRIRRRPPRLPRPRPRPFAYPRP: the “shrunken log2 fold change” value was -0.0942.
Turning to RRIRDRPPRLPRPRPRPDTSPRP, the “shrunken log2 fold change” value was -0.114.
As to RRIRVRPPRLPRPRPRPPTQPRP, the “shrunken log2 fold change” value was determined as 0.273.
Turning to RRIRFRPPRLPRPRPRPACGPRP, the “shrunken log2 fold change” value is 0.0797.
The value for RRIRLRPPRLPRPRPRPRYTPRP was -0.0696; that for RRIRHRPPRLPRPRPRPALGPRP was -0.0558.
In the case of RRIRCRPPRLPRPRPRPIGAPRP, the “shrunken log2 fold change” value is -0.0968.
With RRIRDRPPRLPRPRPRPKLYPRP, the “shrunken log2 fold change” value is 0.0658.
For RRIRNRPPRLPRPRPRPFQDPRP, the “shrunken log2 fold change” value is -0.00135.
For RRIRHRPPRLPRPRPRPQWKPRP, the “shrunken log2 fold change” value was -0.0774.
For the sequence RRIRCRPPRLPRPRPRPAWHPRP, the “shrunken log2 fold change” value is 0.182.
Regarding RRIRWRPPRLPRPRPRPEMGPRP, the “shrunken log2 fold change” value amounted to 0.271.
Turning to RRIRTRPPRLPRPRPRPHHHPRP, the “shrunken log2 fold change” value is -0.924.
The value for RRIRCRPPRLPRPRPRPEDNPRP was 0.11; that for RRIRWRPPRLPRPRPRPMKSPRP was 0.252.
